One assay deals with T1, 4Ig-domain of Neogenin (Gallus gallus, UniProt Q90610).
T1 construct: made in house
T1 sequence (Q90610 1-383): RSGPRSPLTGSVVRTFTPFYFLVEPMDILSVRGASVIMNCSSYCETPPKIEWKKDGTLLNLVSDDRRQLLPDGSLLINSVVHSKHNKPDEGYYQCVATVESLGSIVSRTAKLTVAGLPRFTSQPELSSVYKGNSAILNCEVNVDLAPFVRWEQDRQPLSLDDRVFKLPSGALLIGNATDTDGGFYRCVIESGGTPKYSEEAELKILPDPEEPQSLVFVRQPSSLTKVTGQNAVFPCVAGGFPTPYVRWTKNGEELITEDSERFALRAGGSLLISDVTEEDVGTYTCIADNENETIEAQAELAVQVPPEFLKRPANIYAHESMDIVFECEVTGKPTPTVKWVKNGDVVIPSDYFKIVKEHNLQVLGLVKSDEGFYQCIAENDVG
Briefly: ELISA / AP binding assay of RGMa peptides to Neogenin domains. Conditions: ELISA, Neogenin domains fused to AP. From the text: Specifically, the 4Ig-domain and 6FNIII-domain of Neogenin were each fused to alkaline phosphatase (AP). The 4Ig-domain and 6FNIII-domain of Neogenin were found in the extracellular portion of Neogenin. Accession No. AAC59662 (SEQ ID NO:1) was the amino acid sequence of Neogenin. The 4Ig-domain was amino acids 1 to 383 of Accession No. AAC59662 (SEQ ID NO:1). The 6FNIII-domain was amino acids 429 to 1036 of Accession No. AAC59662 (SEQ ID NO:1).
The binding of these fusions to various RGMa peptides were analyzed in an ELISA assay (FIG. 2A).
To determine if distinct N-terminal regions of RGMa bound the 4Ig- and 6FNIII-domains of Neogenin, peptides were generated that spanned the N-terminal region of RGMa. The amino acid sequence of RGMa was Accession No. NP_989868.1 (SEQ ID NO:6). These peptides were a peptide spanning amino acids 28-73 of RGMa (also referred to herein as “N-Raft”) and a peptide spanning amino acids 77-113 of RGMa (also referred to herein as “N-inh”). […] In a complementary experiment, in which the N-Raft and N-inh peptides of RGMa were fused with AP instead of the 4Ig- and 6FNIII-domains of Neogenin, N-Raft bound to the 4Ig-domain and not the 6FNIII-domain while N-inh bound to the 6FNIII-domain and not the 4Ig-domain (FIG. 9). Additionally, N-inh and N-Raft coated beads pulled down 6FNIII-domain and 4Ig-domain, respectively, which was consistent with the ELISA results described above (FIG. 2B).
The assay was conducted in a 96-well microtiter plate (Corning Incorporated). The wells were coated with 100 μl (10 μg/mL) of Poly-L-Lysine at 4° C. overnight. Wells were then washed three times with 100 μl of PB ST (+0.02% Tween).
50 μl (2.5 μg/mL) of His-tagged: Full-length Neogenin; the 4Ig-domain of Neogenin; and 6FNIII-domain of Neogenin were coated onto each well for 1 hour at 37° C. Following three washes of 100 μl PBST, each well was then blocked with 300 μl of 3% BSA in PBST for 1 hour at 37° C.
50 μl (1.0 μg/mL) AP-tagged: N-RGMa (28-73); N-RGMa (28-54); N-RGMa (40-62); N-RGMa (54-73); N-RGMa (54-62) in 1% BSA+PBST was then added to each well and incubated at 37° C. for 1 hour. Each well was washed thoroughly three times with 100 μl PBST followed by subsequent equilibration of each well with Alkaline Phosphatase (AP) developing buffer (100 mM NaHCO3, 1 mM MgCl2). The reaction was developed using AP developing buffer supplemented with, p-nitrophenyl phosphate (pNPP) (Sigma-Aldrich) and allowed to develop until color development. The reaction was stopped with the addition of 50 μl (0.1M) NaOH. The absorbance of each reaction was measured using a microplate autoreader (BIO-TEK Instruments Inc.) at 405 nanometers (nm) wavelength.
(ELISA stands for enzyme-linked immunosorbent assay.)

The subject of a further assay is brain after stroke. Briefly: Cerebral focal ischemia model (MCA clot occlusion). In kind it is in vivo, rat. Conditions: daily injections. On the procedure:
In all experiments, female Sprague-Dawley rats weighing 200-250 g were used. Briefly, focal cerebral ischemia was induced by injection of a preformed clot into the MCA. The rats were initially anesthetized with 3.0% isoflurane and then maintained with 1.5% isoflurane in a mixture of 30:70 O2 and […] with a face mask during surgery. Body temperature was maintained at 37° C. in the normothermic rats with a heating pad for the duration of surgery and in the immediate postoperative period until the animal was fully recovered from anesthesia.
A 1.5-cm longitudinal incision was made in the midline of the ventral cervical skin. The right common carotid artery (CCA), right internal carotid artery (ICA), and right external carotid artery (ECA) were exposed. The distal portion of the ECA was ligated and cut. A modified polyethylene-10 catheter, filled with bovine thrombin (Thrombostat, TM Warner-Lambert Co.), was introduced into the lumen of the right ECA via a small puncture. Ten micro liters of blood was withdrawn into the catheter and retained for 15 minutes to allow formation of a clot. […] After returning to their cage, animals were monitored for normal recovery.
The infarct volume was expressed as a percentage of the total volume from the ipsilateral hemisphere. Brain edema was determined by calculating the volume difference between the 2 hemispheres and dividing by the volume of the left hemisphere.
Briefly, 7 days after MCA occlusion the anesthetized rats were killed. […] The images were analyzed and the determination of infarct volume and edema was blinded. The infarct volume was calculated using the following formula: Infarct volume=[left hemisphere volume−(the right hemisphere volume−measured infarct volume)]/left hemisphere volume.
Brain swelling was determined using the following formula: Swelling (edema)=(right hemisphere volume−left hemisphere volume)/left hemisphere volume. […]
Briefly, neurological deficits were determined using a modified Bederson's scoring system. […] Mortality was also recorded. […]

Consider “N-Raft: peptide spanning amino acids 28-73 of RGMa (SEQ ID NO:2) (SPCKILKCNSEFWAATSGSHHLGAEETPEFCTALRAYAHCTRRTAR; N-Raft - amino acids 28-73 of RGMa)”, for which the “interaction with the 4Ig-domain of Neogenin” value in the assay with 4Ig-domain of Neogenin is recorded as “interacted”.

B1: 4Ig: four immunoglobulin-like domains of Neogenin, amino acids 1 to 383 of Accession No. AAC59662 (SEQ ID NO:1) (protein, listed as Gallus gallus)
chain: RSGPRSPLTGSVVRTFTPFYFLVEPMDILSVRGASVIMNCSSYCETPPKIEWKKDGTLLNLVSDDRRQLLPDGSLLINSVVHSKHNKPDEGYYQCVATVESLGSIVSRTAKLTVAGLPRFTSQPELSSVYKGNSAILNCEVNVDLAPFVRWEQDRQPLSLDDRVFKLPSGALLIGNATDTDGGFYRCVIESGGTPKYSEEAELKILPDPEEPQSLVFVRQPSSLTKVTGQNAVFPCVAGGFPTPYVRWTKNGEELITEDSERFALRAGGSLLISDVTEEDVGTYTCIADNENETIEAQAELAVQVPPEFLKRPANIYAHESMDIVFECEVTGKPTPTVKWVKNGDVVIPSDYFKIVKEHNLQVLGLVKSDEGFYQCIAENDVGNAQAGAQLIILDLDVAIPTLPPTSLTSATNDHLAPATTGPLPTAPRDVVATLVSTRFIRLTWRTPVSDPQGDNLTYSIFYTKEGINRERVENTSRPGETQVMIQNLMPETVYVFRVVAQNKHGHGESSAPLKVATQPEVQLPGPAPNIRAYAGSPTSVTVTWETPLSGNGEIQNYKLYYMEKGQDSEQDVDVAGLSYTITGLKKYTEYSFRVVAYNKHGPGVSTQDVVVRTLSDVPSAAPQNLTLEARNSKSIMLHWQPPPAGTHSGQITGYKIRYRKVSRKSDVTESVGGTQLFQLIEGLERGTEYNFRIAAMTVNGTGPATDWVSAETFESDLDESRVPEVPSSLHVRPLVTSIVVSWTPPENQNIVVRGYAIGYGIGSPHAQTIKVDYKQRYYTIENLDPSSHYVITLKAFNNVGEGIPLYESAVTRPHSDTSEVDLFVINAPYTPVPDPSPMMPPVGVQASILSHDTIRITWADNSLPKNQKITDARYYTVRWKTNIPANTKYKTANATTLSYLVTGLKPNTLYEFSVMVTKGRRSSTWSMTAHGTTFELVPTSPPKDVTVVSKEGKPRTIIVNWQPPSEANGKITGYIIYYSTDVNAEIHDWVIEPVVGNRLTHQIQELTLDTPYYFKIQARNSKGMGPMSEAVQFRTPKAESSDKMPNDQASGSAGKGSRPVDVGPDYKPPLSGSNSPHGSPTSPLDSNMLLVIIVSVGVITIVIVVIVAVFCTRRTTSHQKKKRAACKSVNGSHKYKGNSKDVKPPDLWIHHERLELKPIDKSPDPNPIMTDTPIPRNSQDITPVDNSMDSNIHQRRNSYRGHESEDSMSTLAGRRGMRPKMMMPFDSQPPQPVISAHPIHSLDNPHHHFHSGSLASPTRSYLHHQVSPWPVGTSMSHSDRANSTESVRNTPSSDTMPASSSQPCADHQDPDSSSGAYLGSAQEEDAAQSLPTAHVRPSHPLKSFAVPAVPAAGSAYDPTLPSTPLLTQQAPSHPVHSVKTASIGTLGRTRPPMPVVVPSAPDVQETTRMLEDSESSYEPDELTKEMAHLEGLMKDLNAITTA
modifications: Neogenin - Accession No. AAC59662
In the case of B1, in the assay on brain after stroke, the “brain edema compared to control” value is recorded as “significantly reduced” and the “infarct volume compared to control” value is “significantly reduced”. Further, the “behavioral deficits compared to control” value in the assay with brain after stroke (Bederson test) is reported as “significantly reduced”.

For the origin of these results see US11497796B2, “Agents directed against a cis RGMa/neogenin interaction or lipid rafts and use of the same in methods of treatment” (UNIVERSITY HEALTH NETWORK, priority 2013, dated 2022).
